Assay results published in patent publication US12630594B2, “Allergy antigen and epitope for same” (HOYU CO., LTD., priority 2017, dated 2026).

System: IgE antibody in the serum of a fish-allergic patient
Experiment: Immunoblotting of two-dimensional electrophoresis patterns of fish meat proteins with patient serum
Assay type: binding, human
Details: spots in two-dimensional electrophoresis gel of proteins in fish; patients diagnosed with immediate-type allergy
Description: Proteins contained in fish were analyzed by the aforementioned technique to identify antigens of an allergy to fish. To be specific, proteins were extracted from fish meat and subjected to two-dimensional electrophoresis under the conditions described below.
The electrophoresis in the first dimension was isoelectric focusing, which was performed using isoelectric focusing gels with a gel-strip length of 5 to 10 cm and a gel pH range of 3 to 10. The pH gradient of the gels in the direction of electrophoresis was as follows: with the total gel-strip length being taken as 1, the gel-strip length up to pH 5 was “a=0.15 to 0.3”, the gel-strip length from pH 5 to 7 was “b=0.4 to 0.7”, and the gel-strip length above pH 7 was “c=0.15 to 0.3”. More specifically, the isoelectric focusing was performed using the IPG gels, Immobiline Drystrip (pH3-10NL), produced by GE Healthcare Bio-Sciences Corporation (hereinafter abbreviated as “GE”). The electrophoresis system used was IPGphor produced by GE. The maximum current of the electrophoresis system was limited to 75 μA per gel strip. The voltage program adopted to perform the first-dimensional isoelectric focusing was as follows: (1) a constant voltage step was performed at a constant voltage of 300 V until the volt-hours reached 750 Vhr (the current variation width during electrophoresis for 30 minutes before the end of this step was 5 μA); (2) the voltage was increased gradually to 1000 V for 300 Vhr; (3) the voltage was further increased gradually to 5000 V for 4500 Vhr; and then (4) the voltage was held at a constant voltage of 5000 V until the total Vhr reached 12000.
The electrophoresis in the second dimension was SDS-PAGE, which was performed using polyacrylamide gels whose gel concentration at the distal end in the direction of electrophoresis was set to 3 to 6% and whose gel concentration at the proximal end was set to a higher value than that at the distal end. More specifically, the SDS-PAGE was performed using NuPAGE 4-12% Bris-Tris Gels (IPG well, Mini, 1 mm) produced by Life Technologies. The electrophoresis system used was XCell SureLock Mini-Cell produced by Life Technologies. The electrophoresis was run at a constant voltage of 200 V for about 45 minutes using an electrophoresis buffer composed of 50 mM MOPS, 50 mM Tris base, 0.1% (w/v) SDS and 1 mM EDTA.
Identification of antigens by immunoblotting was carried out by taking all the steps up to the step of “Second-dimensional SDS-PAGE” as described above in Example 1, followed by the steps of “Transfer to membrane”, “Immunoblotting” and “Analysis” as described below.
To be specific, proteins in the second-dimensional electrophoresis gels were transferred to a membrane (PVDF membrane) according to the following procedure. • (1) The PVDF membrane was immersed in 100% methanol followed by milliQ water, and then moved into the transfer buffer to hydrophilize the PVDF membrane. • (2) After sponge, filter paper, the second-dimensional electrophoresis gels treated by second-dimensional SDS-PAGE, the hydrophilized PVDF membrane, filter paper, and sponge were put in place in this order, the transfer system was energized at a constant voltage of 30 V for one hour. Immunoblotting
Immunoblotting of the membrane was carried out using, as a primary antibody, a serum sample from patient 1 with a fish allergy or a serum sample from a non-fish-allergic subject. This fish-allergic patient 1 was a patient diagnosed with immediate-type allergy to fish. […]

B1: Serotransferrin (protein)
chain: MKLLLVSALLGCFATVYAAPAEGMVRWCVKSEKELKKCHDLAANVAGFSCVRRDDSLECIQAIKREEADAITLDGGDIYIAGLHNYNLQPIIAEDYGEDSDTCYYAVAVAKKGTEFGFLDLRGKKSCHTGLGKSAGWNIPIGTLVTVGQIQWAGIEDRPVESAVSDFFNASCAPGANRDSQLCQLCMGDCSRSHNEPYYDYSGAFQCLKDGAGEVAFIKHLTVPAAEKASYELLCKDNTRAPIDSYKTCHLARVPAHAVVSRKDPRLANLIYSKLMAVTNFNLFSSDGYAAKNLMFKDSTQNLVQLPMTTDSFLYLGAEYMSTIRSLTKAQATGVTSRAIKWCAVGHKEKVKCDAWTINSFTDGDSRIECQDAPTVDECIKKIMRKEADAIAVDGGEVFTAGKCGLVPVMVEQYDEVRCSAPGEASSYFAVAVAKRGSGLTWTTLKGKRSCHTGLGRTAGWNIPMGLIHRRTMNCDFTTYFSKGCAPGFEVDSPFCAQCKGSGKSVGGDGSKCKASSEEQYYGYNGAFRCLVEDAGDVAFIKHTIVPEMTDGSGPVWAQNLMSSDFELLCQDGTTKPVTHFRECHLAKVPAHAVITRPESRGEVVSILLEQQARFGSSGSDSSFNMFKPDFGKNLLFKDSTKCLQEIPSGTKFQGFLGEEYMIAMQSLRECSNSTSDLEKACTFHSC
modifications: Serotransferrin
specific binding to IgE antibodies from fish-allergic patients: specific binding to IgE antibodies
